The target of experiment [1] is mature SsTroA domain (residues 36–317) (Streptococcus suis serotype 2 (strain 05ZYH33)). The experiment is described as follows: AUC; sedimentation velocity profiles analysed with SEDFIT; 1 mg/ml protein in 20 mM Tris-HCl (pH 8.0), 50 mM NaCl; 50,000 rpm, 20°C; monomer and dimer.
The target is the same in experiment [2]. Description: SEC; analytical FPLC Superdex 200 profile of purified SsTroA. A general note: Size exclusion chromatography separates by hydrodynamic size, large species first.

One may read the stoichiometry N as a count of units in the complex or per binding partner.

As for “mature SsTroA domain (residues 36–317) (domain or fragment)”, in experiment [1], the percent of the total protein in the dimer peak stood at 6.8% and the stoichiometry N was 2. The stoichiometry N in experiment [2] was 2.
